From the supplement of paper PMC10567573 come the findings set out here.

The labels stand for the following.
B1: FAM98B (parent)
chain: QLDKNSEVYQEVQAMFDTLGIPKS
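Further: lentivirally expressed fusions sorted by FACS into six bins by GFP to DsRed ratio, PSI derived from sequencing read proportions per bin multiplied by bin number.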

The series covers variants of B1. Kind of series: protein stability index of a GFP-peptide fusion (GPS, HEK-293T) (PSI 1-6); higher = more stable. The conditions noted are these: c terminus: a fixed tail appended.
For the variant QLDENSEVYQEVQAMFDTLGIPKS, the protein stability index came to 3.62.

As for QLDDNSEVYQEVQAMFDTLGIPKS, the protein stability index was 3.44.

For the variant QLDSNSEVYQEVQAMFDTLGIPKS, the protein stability index came to 3.52.

Consider QLDQNSEVYQEVQAMFDTLGIPKS, for which the protein stability index came to 3.03.

For the variant QYDKNSEVYQEVQAMFDTLGIPKS, the protein stability index stood at 4.08.

In the case of QADKNSEVYQEVQAMFDTLGIPKS, the protein stability index is 4.38.

QNDKNSEVYQEVQAMFDTLGIPKS: the protein stability index was found to be 4.36.

For QWDKNSEVYQEVQAMFDTLGIPKS, the protein stability index is 4.03.

Turning to QEDKNSEVYQEVQAMFDTLGIPKS, the protein stability index amounted to 5.34.

QQDKNSEVYQEVQAMFDTLGIPKS: the protein stability index is 4.23.

QCDKNSEVYQEVQAMFDTLGIPKS: the protein stability index turned out to be 4.07.

With QVDKNSEVYQEVQAMFDTLGIPKS, the protein stability index stood at 3.87.

Consider QPDKNSEVYQEVQAMFDTLGIPKS, for which the protein stability index turned out to be 4.66.

Regarding QDDKNSEVYQEVQAMFDTLGIPKS, the protein stability index is 4.67.

On to QSDKNSEVYQEVQAMFDTLGIPKS, for which the protein stability index is 4.63.

Take QGDKNSEVYQEVQAMFDTLGIPKS: the protein stability index amounted to 4.76.

As for QKDKNSEVYQEVQAMFDTLGIPKS, the protein stability index stood at 4.27.

Take QIDKNSEVYQEVQAMFDTLGIPKS: the protein stability index came to 3.08.

Take QTDKNSEVYQEVQAMFDTLGIPKS: the protein stability index was found to be 4.32.

With QFDKNSEVYQEVQAMFDTLGIPKS, the protein stability index amounted to 3.51.

In the case of QMDKNSEVYQEVQAMFDTLGIPKS, the protein stability index worked out at 3.23.

Consider QHDKNSEVYQEVQAMFDTLGIPKS, for which the protein stability index was found to be 4.13.

For QRDKNSEVYQEVQAMFDTLGIPKS, the protein stability index is 3.58.

Take QLDKKSEVYQEVQAMFDTLGIPKS: the protein stability index was found to be 3.88.

Turning to QLDKPSEVYQEVQAMFDTLGIPKS, the protein stability index came to 4.37.

Consider QLDKISEVYQEVQAMFDTLGIPKS, for which the protein stability index was determined as 2.88.

With QLDKSSEVYQEVQAMFDTLGIPKS, the protein stability index amounted to 3.97.

In the case of QLDKYSEVYQEVQAMFDTLGIPKS, the protein stability index came to 2.83.

Take QLDKWSEVYQEVQAMFDTLGIPKS: the protein stability index amounted to 2.91.

With QLDKESEVYQEVQAMFDTLGIPKS, the protein stability index is 3.86.

As for QLDKHSEVYQEVQAMFDTLGIPKS, the protein stability index came out at 3.94.

QLDKDSEVYQEVQAMFDTLGIPKS: the protein stability index is 4.66.

Turning to QLDKGSEVYQEVQAMFDTLGIPKS, the protein stability index was found to be 3.98.

For the variant QLDKFSEVYQEVQAMFDTLGIPKS, the protein stability index stood at 3.41.

For QLDKASEVYQEVQAMFDTLGIPKS, the protein stability index stood at 3.56.

As to QLDKQSEVYQEVQAMFDTLGIPKS, the protein stability index is 4.22.

For QLDKMSEVYQEVQAMFDTLGIPKS, the protein stability index was found to be 3.24.

Take QLDKRSEVYQEVQAMFDTLGIPKS: the protein stability index stood at 3.55.

As for QLDKVSEVYQEVQAMFDTLGIPKS, the protein stability index was determined as 3.99.

In the case of QLDKTSEVYQEVQAMFDTLGIPKS, the protein stability index was found to be 4.11.

Turning to QLDKCSEVYQEVQAMFDTLGIPKS, the protein stability index was determined as 3.37.

QLDKLSEVYQEVQAMFDTLGIPKS: the protein stability index turned out to be 2.69.

Regarding QLDKNMEVYQEVQAMFDTLGIPKS, the protein stability index was 3.23.

Take QLDKNDEVYQEVQAMFDTLGIPKS: the protein stability index came out at 4.67.

For the variant QLDKNQEVYQEVQAMFDTLGIPKS, the protein stability index was 3.14.

On to QLDKNFEVYQEVQAMFDTLGIPKS, for which the protein stability index amounted to 2.63.

In the case of QLDKNAEVYQEVQAMFDTLGIPKS, the protein stability index turned out to be 3.6.

As for QLDKNCEVYQEVQAMFDTLGIPKS, the protein stability index worked out at 2.77.

With QLDKNVEVYQEVQAMFDTLGIPKS, the protein stability index was 3.47.

With QLDKNWEVYQEVQAMFDTLGIPKS, the protein stability index was determined as 2.32.

Turning to QLDKNPEVYQEVQAMFDTLGIPKS, the protein stability index is 4.

For QLDKNEEVYQEVQAMFDTLGIPKS, the protein stability index came to 4.21.

With QLDKNLEVYQEVQAMFDTLGIPKS, the protein stability index stood at 2.66.

Consider QLDKNTEVYQEVQAMFDTLGIPKS, for which the protein stability index was 3.53.

Consider QLDKNREVYQEVQAMFDTLGIPKS, for which the protein stability index was 2.88.

For the variant QLDKNKEVYQEVQAMFDTLGIPKS, the protein stability index stood at 3.23.

For QLDKNIEVYQEVQAMFDTLGIPKS, the protein stability index came out at 2.69.

Consider QLDKNGEVYQEVQAMFDTLGIPKS, for which the protein stability index stood at 3.56.

As for QLDKNHEVYQEVQAMFDTLGIPKS, the protein stability index worked out at 3.35.

Consider QLDKNYEVYQEVQAMFDTLGIPKS, for which the protein stability index is 2.71.

For the variant QLDKNNEVYQEVQAMFDTLGIPKS, the protein stability index is 3.29.

For QLGKNSEVYQEVQAMFDTLGIPKS, the protein stability index turned out to be 3.73.

As to QLTKNSEVYQEVQAMFDTLGIPKS, the protein stability index came to 3.06.

In the case of QLCKNSEVYQEVQAMFDTLGIPKS, the protein stability index was determined as 2.21.

Take QLRKNSEVYQEVQAMFDTLGIPKS: the protein stability index was determined as 3.21.

Take QLHKNSEVYQEVQAMFDTLGIPKS: the protein stability index was 3.43.

As to QLVKNSEVYQEVQAMFDTLGIPKS, the protein stability index was 2.67.

For QLYKNSEVYQEVQAMFDTLGIPKS, the protein stability index stood at 2.49.

As to QLMKNSEVYQEVQAMFDTLGIPKS, the protein stability index amounted to 2.16.

For the variant QLSKNSEVYQEVQAMFDTLGIPKS, the protein stability index was found to be 2.93.

For QLIKNSEVYQEVQAMFDTLGIPKS, the protein stability index is 1.95.

Take QLKKNSEVYQEVQAMFDTLGIPKS: the protein stability index is 3.45.

On to QLWKNSEVYQEVQAMFDTLGIPKS, for which the protein stability index is 2.08.

On to QLNKNSEVYQEVQAMFDTLGIPKS, for which the protein stability index was found to be 3.47.

On to QLEKNSEVYQEVQAMFDTLGIPKS, for which the protein stability index was found to be 3.87.

Consider QLFKNSEVYQEVQAMFDTLGIPKS, for which the protein stability index turned out to be 2.73.

As to QLAKNSEVYQEVQAMFDTLGIPKS, the protein stability index was determined as 3.46.

Consider QLQKNSEVYQEVQAMFDTLGIPKS, for which the protein stability index is 2.75.

QLPKNSEVYQEVQAMFDTLGIPKS: the protein stability index was found to be 3.11.

With QLLKNSEVYQEVQAMFDTLGIPKS, the protein stability index worked out at 2.06.

QLDKNSEPYQEVQAMFDTLGIPKS: the protein stability index was found to be 3.32.

On to QLDKNSEHYQEVQAMFDTLGIPKS, for which the protein stability index was determined as 3.12.

As for QLDKNSEKYQEVQAMFDTLGIPKS, the protein stability index is 3.07.

On to QLDKNSEEYQEVQAMFDTLGIPKS, for which the protein stability index came out at 3.79.

For the variant QLDKNSECYQEVQAMFDTLGIPKS, the protein stability index was 3.02.

As for QLDKNSEAYQEVQAMFDTLGIPKS, the protein stability index was 3.85.

With QLDKNSEFYQEVQAMFDTLGIPKS, the protein stability index came out at 2.55.

Take QLDKNSENYQEVQAMFDTLGIPKS: the protein stability index was found to be 3.94.

In the case of QLDKNSEDYQEVQAMFDTLGIPKS, the protein stability index amounted to 3.62.

In the case of QLDKNSEIYQEVQAMFDTLGIPKS, the protein stability index was 2.73.

Take QLDKNSEQYQEVQAMFDTLGIPKS: the protein stability index was 3.31.

With QLDKNSEGYQEVQAMFDTLGIPKS, the protein stability index amounted to 3.12.

For the variant QLDKNSELYQEVQAMFDTLGIPKS, the protein stability index was 3.47.

With QLDKNSEMYQEVQAMFDTLGIPKS, the protein stability index was found to be 3.2.
